Patent US20160046711A1 (Novartis, published 2016)

T1: cynomolgus CDH6 expressed on CHO cells (cynomolgus, UniProt A0A2K5TW62 54-790)
T1 sequence: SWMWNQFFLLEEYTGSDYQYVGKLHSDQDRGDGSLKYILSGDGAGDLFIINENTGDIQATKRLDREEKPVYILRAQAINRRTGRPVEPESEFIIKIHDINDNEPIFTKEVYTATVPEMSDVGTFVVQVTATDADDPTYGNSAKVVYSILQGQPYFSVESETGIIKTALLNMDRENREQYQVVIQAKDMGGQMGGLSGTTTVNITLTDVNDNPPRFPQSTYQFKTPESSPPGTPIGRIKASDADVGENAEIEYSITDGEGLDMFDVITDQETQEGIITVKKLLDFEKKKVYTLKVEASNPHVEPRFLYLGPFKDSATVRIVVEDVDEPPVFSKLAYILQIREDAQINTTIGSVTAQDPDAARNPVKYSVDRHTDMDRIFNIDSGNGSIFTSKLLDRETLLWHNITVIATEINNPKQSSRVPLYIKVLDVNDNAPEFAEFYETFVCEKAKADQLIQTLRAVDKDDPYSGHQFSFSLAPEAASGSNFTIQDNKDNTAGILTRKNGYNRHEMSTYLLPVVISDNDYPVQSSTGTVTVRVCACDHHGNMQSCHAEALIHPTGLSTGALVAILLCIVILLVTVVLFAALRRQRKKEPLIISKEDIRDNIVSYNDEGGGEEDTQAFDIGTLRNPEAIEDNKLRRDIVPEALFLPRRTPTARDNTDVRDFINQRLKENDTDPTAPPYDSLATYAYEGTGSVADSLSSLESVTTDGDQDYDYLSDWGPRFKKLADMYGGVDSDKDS

T2: mouse CDH6 expressed on CHO cells (mouse, UniProt P97326 54-790)
T2 sequence (looked up): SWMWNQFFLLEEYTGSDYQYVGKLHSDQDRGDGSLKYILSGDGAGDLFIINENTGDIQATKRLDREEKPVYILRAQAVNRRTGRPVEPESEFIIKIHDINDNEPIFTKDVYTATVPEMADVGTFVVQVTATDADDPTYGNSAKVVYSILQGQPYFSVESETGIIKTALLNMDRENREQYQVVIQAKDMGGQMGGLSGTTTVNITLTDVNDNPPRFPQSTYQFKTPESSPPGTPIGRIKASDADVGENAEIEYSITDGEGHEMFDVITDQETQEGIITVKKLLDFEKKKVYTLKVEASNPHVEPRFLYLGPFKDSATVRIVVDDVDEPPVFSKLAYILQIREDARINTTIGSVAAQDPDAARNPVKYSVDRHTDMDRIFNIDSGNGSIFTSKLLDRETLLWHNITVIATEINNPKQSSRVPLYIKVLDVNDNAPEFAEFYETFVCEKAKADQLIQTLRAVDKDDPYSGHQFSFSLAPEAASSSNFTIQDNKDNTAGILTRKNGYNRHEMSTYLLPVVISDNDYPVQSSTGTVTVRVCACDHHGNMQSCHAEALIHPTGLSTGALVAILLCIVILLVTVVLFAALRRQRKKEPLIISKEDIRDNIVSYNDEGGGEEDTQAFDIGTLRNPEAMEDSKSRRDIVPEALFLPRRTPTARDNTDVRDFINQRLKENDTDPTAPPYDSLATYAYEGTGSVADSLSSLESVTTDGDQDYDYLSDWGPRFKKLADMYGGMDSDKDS

T3: human CDH6 expressed on cells (human, UniProt P55285 54-790)
T3 sequence: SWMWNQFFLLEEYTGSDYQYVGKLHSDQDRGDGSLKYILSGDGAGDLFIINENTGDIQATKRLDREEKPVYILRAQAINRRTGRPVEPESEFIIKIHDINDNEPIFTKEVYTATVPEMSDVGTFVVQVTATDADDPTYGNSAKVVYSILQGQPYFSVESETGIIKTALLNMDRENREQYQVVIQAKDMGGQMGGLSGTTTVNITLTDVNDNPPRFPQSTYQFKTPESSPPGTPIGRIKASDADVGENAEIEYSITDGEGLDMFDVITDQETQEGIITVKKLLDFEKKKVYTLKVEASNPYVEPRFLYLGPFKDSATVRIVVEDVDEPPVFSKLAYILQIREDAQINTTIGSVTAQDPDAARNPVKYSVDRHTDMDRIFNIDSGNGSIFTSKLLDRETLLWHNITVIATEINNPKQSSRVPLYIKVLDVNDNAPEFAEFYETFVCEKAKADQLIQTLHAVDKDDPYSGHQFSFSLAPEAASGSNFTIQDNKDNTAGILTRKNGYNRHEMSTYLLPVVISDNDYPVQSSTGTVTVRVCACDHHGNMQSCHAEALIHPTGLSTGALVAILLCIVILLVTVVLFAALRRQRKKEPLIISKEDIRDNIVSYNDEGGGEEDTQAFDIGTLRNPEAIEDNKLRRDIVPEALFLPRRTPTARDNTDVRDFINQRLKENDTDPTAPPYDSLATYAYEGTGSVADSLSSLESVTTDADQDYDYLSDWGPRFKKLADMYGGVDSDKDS

T4: rat CDH6 expressed on CHO cells (rat, UniProt P55280 54-789)
T4 sequence (looked up): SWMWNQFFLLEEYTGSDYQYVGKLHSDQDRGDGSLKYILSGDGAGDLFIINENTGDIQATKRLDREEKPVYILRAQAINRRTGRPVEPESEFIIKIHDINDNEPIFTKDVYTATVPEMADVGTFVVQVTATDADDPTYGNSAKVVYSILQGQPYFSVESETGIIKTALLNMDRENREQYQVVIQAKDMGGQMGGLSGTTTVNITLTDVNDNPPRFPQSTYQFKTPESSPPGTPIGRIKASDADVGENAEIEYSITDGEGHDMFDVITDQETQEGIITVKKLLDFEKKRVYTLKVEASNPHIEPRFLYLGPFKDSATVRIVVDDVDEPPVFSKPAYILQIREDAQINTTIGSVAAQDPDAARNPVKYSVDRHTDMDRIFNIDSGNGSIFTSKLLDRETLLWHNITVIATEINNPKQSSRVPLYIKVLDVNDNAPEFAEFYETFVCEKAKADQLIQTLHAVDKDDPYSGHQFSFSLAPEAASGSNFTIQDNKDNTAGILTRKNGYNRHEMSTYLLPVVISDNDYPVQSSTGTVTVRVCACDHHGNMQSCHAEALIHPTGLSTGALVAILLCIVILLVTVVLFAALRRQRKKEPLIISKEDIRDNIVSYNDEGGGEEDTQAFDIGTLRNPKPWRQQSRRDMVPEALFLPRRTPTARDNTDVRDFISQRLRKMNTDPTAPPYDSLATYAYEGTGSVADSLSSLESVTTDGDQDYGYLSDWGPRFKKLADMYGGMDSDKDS


Experiments:
[1] = target: T1, cynomolgus CDH6 expressed on CHO cells; experiment: FACS titration
[2] = target: T2, mouse CDH6 expressed on CHO cells; experiment: FACS titration
[3] = target: T3, human CDH6 expressed on cells; experiment: FACS titration
[4] = target: T3, human CDH6 expressed on cells; experiment: FACS titration; remark: listed apart in the source
[5] = target: T4, rat CDH6 expressed on CHO cells; experiment: FACS titration
[6] = target: T4, rat CDH6 expressed on CHO cells; experiment: FACS titration on CHO-ratCDH6
[7] = target: T3, human CDH6 expressed on cells; experiment: FACS titration on CHO-TO-huCDH6
[8] = target: T1, cynomolgus CDH6 expressed on CHO cells; experiment: FACS titration on CHO-cyCDH6
[9] = target: T2, mouse CDH6 expressed on CHO cells; experiment: FACS titration on CHO-moCDH6

EC50 [1] [nM]	EC50 [2] [nM]	EC50 [3] [nM]	EC50 [4] [nM]	EC50 [5] [nM]	EC50 [6] [nM]	EC50 [7] [nM]	EC50 [8] [nM]	EC50 [9] [nM]	Binder
1.07	1.26	0.946	0.386	0.814	–	–	–	–	NOV0712 (antibody, human IgG1, kappa, V domains shown) VH: QVQLLESGGGLVQPGGSLRLSCAASGFTFSSHGMHWVRQAPGKGLEWVSVISGSGSNTGYADSVKGRFTISRDNSKNTLYLQMNSLRAEDTAVYYCARQWGSYAFDSWGQGTLVTVSS VL: DIQMTQSPSSLSASVGDRVTITCRASQSISSYLNWYQQKPGKAPKLLIYAVSTLQSGVPSRFSGSGSGTDFTLTISSLQPEDFATYYCQQSGTFPPTTFGQGTKVEIKR
–	–	–	0.364	–	0.637	0.651	0.606	0.94	NOV0712-sulfo-SPDB-DM4 (antibody, human IgG1, kappa, V domains shown, sulfo-SPDB-DM4 linker/payload on antibody amines, positions not given) VH: QVQLLESGGGLVQPGGSLRLSCAASGFTFSSHGMHWVRQAPGKGLEWVSVISGSGSNTGYADSVKGRFTISRDNSKNTLYLQMNSLRAEDTAVYYCARQWGSYAFDSWGQGTLVTVSS VL: DIQMTQSPSSLSASVGDRVTITCRASQSISSYLNWYQQKPGKAPKLLIYAVSTLQSGVPSRFSGSGSGTDFTLTISSLQPEDFATYYCQQSGTFPPTTFGQGTKVEIKR
